Measurements taken from US20160272683A1 (Novo Nordisk, published 2016).
Numbered stars: 1 amine (or outer) side, 2 acyl side, 3 side chain; on linkers, the order of the positions; unused ones are H or OH. * marks the point of attachment. C20 diacid = O=C(O)CCCCCCCCCCCCCCCCCCC(=O)*; C18 diacid = O=C(O)CCCCCCCCCCCCCCCCC(=O)*; γGlu = O=C(O)[C@H](CCC(=O)[*:2])N[*:1]

T1: human amylin receptor (human calcitonin receptor + human RAMP3) (human) (UniProt P30988)
T1 sequence (looked up) 1: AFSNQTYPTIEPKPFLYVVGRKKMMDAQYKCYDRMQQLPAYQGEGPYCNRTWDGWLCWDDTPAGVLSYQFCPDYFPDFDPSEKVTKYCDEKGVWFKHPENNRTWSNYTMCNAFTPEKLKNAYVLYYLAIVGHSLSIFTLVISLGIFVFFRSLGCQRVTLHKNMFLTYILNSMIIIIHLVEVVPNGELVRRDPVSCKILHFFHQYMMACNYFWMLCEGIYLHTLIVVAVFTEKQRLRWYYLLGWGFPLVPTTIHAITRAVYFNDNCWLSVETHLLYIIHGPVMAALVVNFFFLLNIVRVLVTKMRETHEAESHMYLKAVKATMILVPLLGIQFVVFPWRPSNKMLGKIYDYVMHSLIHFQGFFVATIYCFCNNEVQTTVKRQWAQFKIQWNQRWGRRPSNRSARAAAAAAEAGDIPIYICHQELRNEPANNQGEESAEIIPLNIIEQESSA
T1 sequence (looked up) 2: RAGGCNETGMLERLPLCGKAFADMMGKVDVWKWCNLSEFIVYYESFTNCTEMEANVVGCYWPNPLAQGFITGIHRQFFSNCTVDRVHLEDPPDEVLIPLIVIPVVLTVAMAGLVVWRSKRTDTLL


Target: T1, human amylin receptor (human calcitonin receptor + human RAMP3) (human)
Experiment: whole-cell competition vs 125I-rat amylin (Assay Va)

| Binder | IC50 [nM] |
| --- | --- |
| {C20 diacid-γGlu}-ASELSTAALGRLSAELHELATLPHTETGSGSP-NH2 (SMILES CC(C)C[C@H](NC(=O)[C@H](C)NC(=O)[C@H](C)NC(=O)[C@@H](NC(=O)[C@H](CO)NC(=O)[C@H](CC(C)C)NC(=O)[C@H](CCC(=O)O)NC(=O)[C@H](CO)NC(=O)[C@H](C)NC(=O)CC[C@H](NC(=O)CCCCCCCCCCCCCCCCCCC(=O)O)C(=O)O)[C@@H](C)O)C(=O)NCC(=O)N[C@@H](CCCNC(=N)N)C(=O)N[C@@H](CC(C)C)C(=O)N[C@@H](CO)C(=O)N[C@@H](C)C(=O)N[C@@H](CCC(=O)O)C(=O)N[C@@H](CC(C)C)C(=O)N[C@@H](Cc1c[nH]cn1)C(=O)N[C@@H](CCC(=O)O)C(=O)N[C@@H](CC(C)C)C(=O)N[C@@H](C)C(=O)N[C@H](C(=O)N[C@@H](CC(C)C)C(=O)N1CCC[C@H]1C(=O)N[C@@H](Cc1c[nH]cn1)C(=O)N[C@H](C(=O)N[C@@H](CCC(=O)O)C(=O)N[C@H](C(=O)NCC(=O)N[C@@H](CO)C(=O)NCC(=O)N[C@@H](CO)C(=O)N1CCC[C@H]1C(N)=O)[C@@H](C)O)[C@@H](C)O)[C@@H](C)O) [[N-terminal(C20 diacid-gGlu), des1, 25H, 30S, 31G]mimylin] | 0.608 |
| {C20 diacid-γGlu}-ASELSTAALGRLSAELHELATLPRTETGTGTP-NH2 (SMILES CC(C)C[C@H](NC(=O)[C@H](C)NC(=O)[C@H](C)NC(=O)[C@@H](NC(=O)[C@H](CO)NC(=O)[C@H](CC(C)C)NC(=O)[C@H](CCC(=O)O)NC(=O)[C@H](CO)NC(=O)[C@H](C)NC(=O)CC[C@H](NC(=O)CCCCCCCCCCCCCCCCCCC(=O)O)C(=O)O)[C@@H](C)O)C(=O)NCC(=O)N[C@@H](CCCNC(=N)N)C(=O)N[C@@H](CC(C)C)C(=O)N[C@@H](CO)C(=O)N[C@@H](C)C(=O)N[C@@H](CCC(=O)O)C(=O)N[C@@H](CC(C)C)C(=O)N[C@@H](Cc1c[nH]cn1)C(=O)N[C@@H](CCC(=O)O)C(=O)N[C@@H](CC(C)C)C(=O)N[C@@H](C)C(=O)N[C@H](C(=O)N[C@@H](CC(C)C)C(=O)N1CCC[C@H]1C(=O)N[C@@H](CCCNC(=N)N)C(=O)N[C@H](C(=O)N[C@@H](CCC(=O)O)C(=O)N[C@H](C(=O)NCC(=O)N[C@H](C(=O)NCC(=O)N[C@H](C(=O)N1CCC[C@H]1C(N)=O)[C@@H](C)O)[C@@H](C)O)[C@@H](C)O)[C@@H](C)O)[C@@H](C)O) [[N-terminal(C20 diacid-gGlu), des1, 30T, 31G, 32T]mimylin] | 0.606 |
| {C20 diacid-γGlu}-ASELSTAALGRLSAELHELATLPRTETGSGSG-NH2 (SMILES CC(C)C[C@H](NC(=O)[C@H](C)NC(=O)[C@H](C)NC(=O)[C@@H](NC(=O)[C@H](CO)NC(=O)[C@H](CC(C)C)NC(=O)[C@H](CCC(=O)O)NC(=O)[C@H](CO)NC(=O)[C@H](C)NC(=O)CC[C@H](NC(=O)CCCCCCCCCCCCCCCCCCC(=O)O)C(=O)O)[C@@H](C)O)C(=O)NCC(=O)N[C@@H](CCCNC(=N)N)C(=O)N[C@@H](CC(C)C)C(=O)N[C@@H](CO)C(=O)N[C@@H](C)C(=O)N[C@@H](CCC(=O)O)C(=O)N[C@@H](CC(C)C)C(=O)N[C@@H](Cc1c[nH]cn1)C(=O)N[C@@H](CCC(=O)O)C(=O)N[C@@H](CC(C)C)C(=O)N[C@@H](C)C(=O)N[C@H](C(=O)N[C@@H](CC(C)C)C(=O)N1CCC[C@H]1C(=O)N[C@@H](CCCNC(=N)N)C(=O)N[C@H](C(=O)N[C@@H](CCC(=O)O)C(=O)N[C@H](C(=O)NCC(=O)N[C@@H](CO)C(=O)NCC(=O)N[C@@H](CO)C(=O)NCC(N)=O)[C@@H](C)O)[C@@H](C)O)[C@@H](C)O) [[N-terminal(C20 diacid-gGlu), des1, 30S, 31G, 33G]mimylin] | 4.36 |

Continued, values first:

| IC50 [nM] | Binder |
| --- | --- |
| 22 | {C18 diacid-γGlu}-ASELSTAALGRLSAELHELATLPRTETGSGPP-NH2 (SMILES CC(C)C[C@H](NC(=O)[C@H](C)NC(=O)[C@H](C)NC(=O)[C@@H](NC(=O)[C@H](CO)NC(=O)[C@H](CC(C)C)NC(=O)[C@H](CCC(=O)O)NC(=O)[C@H](CO)NC(=O)[C@H](C)NC(=O)CC[C@H](NC(=O)CCCCCCCCCCCCCCCCC(=O)O)C(=O)O)[C@@H](C)O)C(=O)NCC(=O)N[C@@H](CCCNC(=N)N)C(=O)N[C@@H](CC(C)C)C(=O)N[C@@H](CO)C(=O)N[C@@H](C)C(=O)N[C@@H](CCC(=O)O)C(=O)N[C@@H](CC(C)C)C(=O)N[C@@H](Cc1c[nH]cn1)C(=O)N[C@@H](CCC(=O)O)C(=O)N[C@@H](CC(C)C)C(=O)N[C@@H](C)C(=O)N[C@H](C(=O)N[C@@H](CC(C)C)C(=O)N1CCC[C@H]1C(=O)N[C@@H](CCCNC(=N)N)C(=O)N[C@H](C(=O)N[C@@H](CCC(=O)O)C(=O)N[C@H](C(=O)NCC(=O)N[C@@H](CO)C(=O)NCC(=O)N1CCC[C@H]1C(=O)N1CCC[C@H]1C(N)=O)[C@@H](C)O)[C@@H](C)O)[C@@H](C)O) [[N-terminal(C18 diacid-gGlu), des1, 30S, 31G, 32P]mimylin] |
| 1.89 | {C20 diacid-γGlu}-ASELSTAALGRLSAELHELATLPRTETGSGSA-NH2 (SMILES CC(C)C[C@H](NC(=O)[C@H](C)NC(=O)[C@H](C)NC(=O)[C@@H](NC(=O)[C@H](CO)NC(=O)[C@H](CC(C)C)NC(=O)[C@H](CCC(=O)O)NC(=O)[C@H](CO)NC(=O)[C@H](C)NC(=O)CC[C@H](NC(=O)CCCCCCCCCCCCCCCCCCC(=O)O)C(=O)O)[C@@H](C)O)C(=O)NCC(=O)N[C@@H](CCCNC(=N)N)C(=O)N[C@@H](CC(C)C)C(=O)N[C@@H](CO)C(=O)N[C@@H](C)C(=O)N[C@@H](CCC(=O)O)C(=O)N[C@@H](CC(C)C)C(=O)N[C@@H](Cc1c[nH]cn1)C(=O)N[C@@H](CCC(=O)O)C(=O)N[C@@H](CC(C)C)C(=O)N[C@@H](C)C(=O)N[C@H](C(=O)N[C@@H](CC(C)C)C(=O)N1CCC[C@H]1C(=O)N[C@@H](CCCNC(=N)N)C(=O)N[C@H](C(=O)N[C@@H](CCC(=O)O)C(=O)N[C@H](C(=O)NCC(=O)N[C@@H](CO)C(=O)NCC(=O)N[C@@H](CO)C(=O)N[C@@H](C)C(N)=O)[C@@H](C)O)[C@@H](C)O)[C@@H](C)O) [[N-terminal(C20 diacid-gGlu), des1, 30S, 31G, 33A]mimylin] |
| 4.07 | {C20 diacid-γGlu}-ASELSTAALGRLSAELHELATLPRTETGSGSS-NH2 (SMILES CC(C)C[C@H](NC(=O)[C@H](C)NC(=O)[C@H](C)NC(=O)[C@@H](NC(=O)[C@H](CO)NC(=O)[C@H](CC(C)C)NC(=O)[C@H](CCC(=O)O)NC(=O)[C@H](CO)NC(=O)[C@H](C)NC(=O)CC[C@H](NC(=O)CCCCCCCCCCCCCCCCCCC(=O)O)C(=O)O)[C@@H](C)O)C(=O)NCC(=O)N[C@@H](CCCNC(=N)N)C(=O)N[C@@H](CC(C)C)C(=O)N[C@@H](CO)C(=O)N[C@@H](C)C(=O)N[C@@H](CCC(=O)O)C(=O)N[C@@H](CC(C)C)C(=O)N[C@@H](Cc1c[nH]cn1)C(=O)N[C@@H](CCC(=O)O)C(=O)N[C@@H](CC(C)C)C(=O)N[C@@H](C)C(=O)N[C@H](C(=O)N[C@@H](CC(C)C)C(=O)N1CCC[C@H]1C(=O)N[C@@H](CCCNC(=N)N)C(=O)N[C@H](C(=O)N[C@@H](CCC(=O)O)C(=O)N[C@H](C(=O)NCC(=O)N[C@@H](CO)C(=O)NCC(=O)N[C@@H](CO)C(=O)N[C@@H](CO)C(N)=O)[C@@H](C)O)[C@@H](C)O)[C@@H](C)O) [[N-terminal(C20 diacid-gGlu), des1, 30S, 31G, 33S]mimylin] |
